The labels stand for the following.
B1: Necl-3-GFP (human Necl-3 fused to GFP at its carboxy-terminus) (other)
chain: QFPLTQNVTVVEGGTAILTCRVDQNDNTSLQWSNPAQQTLYFDDKKALRDNRIELVRASWHELSISVSDVSLSDEGQYTCSLFTMPVKTSKAYLTVLGVPEKPQISGFSSPVMEGDLMQLTCKTSGSKPAADIRWFKNDKEIKDVKYLKEEDANRKTFTVSSTLDFRVDRSDDGVAVICRVDHESLNATPQVAMQVLEIHYTPSVKIIPSTPFPQEGQPLILTCESKGKPLPEPVLWTKDGGELPDPDRMVVSGRELNILFLNKTDNGTYRCEATNTIGQSSAEYVLIVHDVPNTLLPTTIIPSLTTATVTTTVAITTSPTTSATTSSIRDPNALAGQNGPDHALIGGIVAVVVFVTLCSIFLLGRYLARHKGTYLTNEAKGAEDAPDADTAIINAEGSQVNAEEKKEYFI
notes: Expressed in Drosophila S2 cells; on cells in the aggregation assays, in crude cell lysate in the western blot; also called pMT-Necl-3-GFP; not shown: GFP of vector pEGFP-N1 (BD Biosciences Clontech), C-terminal fusion
B2: Necl-4-DsRed2 (human Necl-4 fused to DsRed2) (other)
chain: QEVQTENVTVAEGGVAEITCRLHQYDGSIVVIQNPARQTLFFNGTRALKDERFQLEEFSPRRVRIRLSDARLEDEGGYFCQLYTEDTHHQIATLTVLVAPENPVVEVREQAVEGGEVELSCLVPRSRPAATLRWYRDRKELKGVSSSQENGKVWSVASTVRFRVDRKDDGGIIICEAQNQALPSGHSKQTQYVLDVQYSPTARIHASQAVVREGDTLVLTCAVTGNPRPNQIRWNRGNESLPERAEAVGETLTLPGLVSADNGTYTCEASNKHGHARALYVLVVYDPGAVVEAQTSVPYAIVGGILALLVFLIICVLVGMVWCSVRQKGSYLTHEASGLDEQGEAREAFLNGSDGHKRKEEFFI
notes: On S2 cells; also called pMT-Necl-4-DsRed2; not shown: DsRed2 (Discosoma Red) of pMT-DsRed2, C-terminal fusion
B3: Necl-4-GFP (human Necl-4 fused to GFP at its carboxy-terminus) (other)
chain: B2 chain
notes: In lysate in the western blot; also called pMT-Necl-4-GFP; not shown: GFP of vector pEGFP-N1 (via pMT-GFP), C-terminal fusion
B4: Necl-2-GFP (human Necl-2 fused to GFP at its carboxy-terminus) (other)
chain: QNLFTKDVTVIEGEVATISCQVNKSDDSVIQLLNPNRQTIYFRDFRPLKDSRFQLLNFSSSELKVSLTNVSISDEGRYFCQLYTDPPQESYTTITVLVPPRNLMIDIQKDTAVEGEEIEVNCTAMASKPATTIRWFKGNTELKGKSEVEEWSDMYTVTSQLMLKVHKEDDGVPVICQVEHPAVTGNLQTQRYLEVQYKPQVHIQMTYPLQGLTREGDALELTCEAIGKPQPVMVTWVRVDDEMPQHAVLSGPNLFINNLNKTDNGTYRCEASNIVGKAHSDYMLYVYDPPTTIPPPTTTTTTTTTTTTTILTIITDSRAGEEGSIRAVDHAVIGGVVAVVVFAMLCLLIILGRYFARHKGTYFTHEAKGADDAADADTAIINAEGGQNNSEEKKEYFI
notes: Expressed in S2 cells; on cells in aggregation assays, in cell lysate in the western blot and the pull-down; also called pMT-Necl-2-GFP; not shown: GFP of vector pEGFP-N1 (BD Biosciences Clontech), C-terminal fusion
B5: Necl-1-DsRed2 (human Necl-1 fused to DsRed2) (other)
chain: NLSQDDSQPWTSDETVVAGGTVVLKCQVKDHEDSSLQWSNPAQQTLYFGEKRALRDNRIQLVTSTPHELSISISNVALADEGEYTCSIFTMPVRTAKSLVTVLGIPQKPIITGYKSSLREKDTATLNCQSSGSKPAARLTWRKGDQELHGEPTRIQEDPNGKTFTVSSSVTFQVTREDDGASIVCSVNHESLKGADRSTSQRIEVLYTPTAMIRPDPPHPREGQKLLLHCEGRGNPVPQQYLWEKEGSVPPLKMTQESALIFPFLNKSDSGTYGCTATSNMGSYKAYYTLNVNDPSPVPSSSSTYHAIIGGIVAFIVFLLLIMLIFLGHYLIRHKGTYLTHEAKGSDDAPDADTAIINAEGGQSGGDDKKEYFI
notes: On S2 cells; also called pMT-Necl-1-DsRed2; not shown: DsRed2 (Discosoma Red) of vector pDsRed2-N1 (BD Biosciences Clontech), C-terminal fusion

Common to all, as to test: S2 cell aggregation assay
Data set [1] deals with the molecule itself.
Data set [2] deals with B4.
Data set [3] deals with T1, Necl-1-GFP (human Necl-1 fused to GFP at its carboxy-terminus) (human, UniProt Q8N126 25-398).
T1 construct: Expressed in S2 cells; In lysate in the western blot; also called pMT-Necl-1-GFP; not shown: GFP of vector pEGFP-N1 (BD Biosciences Clontech), C-terminal fusion
T1 sequence: B5 chain

Data set [4] deals with B1.
Data set [5] concerns the target T2, myc-tagged version of Necl-3 (pNecl-3-myc) (human, UniProt Q8N3J6 25-435).
T2 construct: On S2 cells in the aggregation assay; not shown: C-terminal myc-His tag of vector pcDNA3.1/myc-His
T2 sequence: B1 chain

Take B1: the binding result in data set [1] was “binds”. In the case of B2, the binding result in data set [2], in data set [3] and in data set [4] was “binds” in each case.

For the molecule B3, the binding result in data set [1] is recorded as “binds”. Turning to B4, the binding result in data set [5] was “binds”.

Consider B5, for which the binding result in data set [4] is on record as “binds”.

These data come from patent EP1918299A1 (UNIVERSITE DE GENEVE, dated 2008).
